The DeepSol protein solubility set

Assay: soluble on expression in E. coli; label from the status in PepcDB or PDB records

Sequence	soluble on expression in E. coli
MGSDKIHHHHHHMEGEYRALNDISLESNVLFFGKESCLPNYFYPGNNVRKNYVIHYILKGKGTFSSANHPSIELKAGDIFILPKGIPCFYKADGKEPWTYLWIGFSGLKIKNILSRSLLLSQRYLHQVQNSHFTDSLLKLFDALHNPDTSTNNDLLIESLIYQTFYYLNSEYPAQNKTNIKSSIRLKTATKYLYDNFTDNNCSIYLLCNKLGVSRSYLYNIFKEGMNLSPQQFLIKLRMEEAKNKLKNSQNSIQEISTSVGYTDTFTFSKAFKKYSGFSPKNYRQIKSSEN	not soluble
MSKGFAFKPSALAAKADKLWSDSKTEYTATHSTINHVHLEKKSLGDIIPKSADAPVANEKEVEEAPQAFVFGSKISDRVVNKEGDSTKPGGSDEKTMTATELFQNAVKKDDDKNGAKNFRKEAEQEAERAKEAEKQHAGTSSVEITTGEENDTNIFQAPCKIWAFDKLKNAYSEKGVCNLRINKRVENGLTHHRIVARTSSGTLRVIINSKIFSDMLLERVDKRIRISAMGPEISGVQIFLLKIGFTKTETIPDSDIFYNIMSDLLKLEKGENSRKRKADCDLNASTVKIKDGKEEEEGDQDQVDEGFVIVNKPTEDEVKEEKPAVTAAEESASSSTPSE	not soluble
MIFLIVLKYPVSLNVIRKLKTGDVVYYTGKIVVMDRSVVDILEKYERYEGTKLYDLTGEIVVLGTFRKNKLQFQEMTEELLERLFLLGVNGVILERVRPFSATKRFSRVLFEPLEEIRGTRRVIYKTPDSKKLEELEVEKLVLRVVQDSSGKVYSKV	not soluble
MGSDKIHHHHHHMDDEIKKAITNYDDRPAMTKSTQKVFKNQQEMRTVLRDEVEVWQLIHQTDKQAEANIKPKLPPLAGARIMFRHFDFCLFSHDESERMAAYLPNDGIYTQNYRYLKRLIALMYPSYNLRQALDVIYHLEMMAPVRALTIDRYLVPVNNGIWNLHQHQLIPFSPKYVFTTKIATNYRDNATTPNIKGWTIDNWFDELACGDDEIVELLWEVINDCLNGNYTRKKAIFLFSELGNSGKGTFQELITNLVGMDNVGTLKVNEFDVRFRLAGLVGKTVCIGDDIAPDIYIKDSSNFNSVVTGDLVNIEFKGQDGYTSALRCTIVQSCNGLPNFHNKGGTMRRLVIVPFNNHFQGKGDNWSIRNDYITRKDVLEYVLYKALQLDFDKFSVPEVSKKALADFELDNNPLIGFKVSFFDKLKVDKVPTYYLYEYYKKYCSINGLKALGQSKFIRRFMTCVPLYEKKQAKLSATDINTLDVFKQQDEIIAWPREPLAGKKYNCIVQSTL	not soluble
MNIVCIDTCFSSVAITAQGNAGTFTSVFTPAKARHSAILIPAIETAVKQAGFSINETDVLVCPQGPGGFTGLRLAYSTAKAIQLQTNARFFCVSILEALCSKYGDKNQFLSVIDAKRDCFYVQAFENKKPISEAFDIRAEDALKLIDKNKKTIICGFGTEKFNEEAGASIESNNITLIEADKETLSKTLLDCFLTNKNCKKVEDHEGPVYIRKSDAEY	not soluble
MHHHHHHSSGVDLGTENLYFQSMGAASLDVIQEVEYVKEEAKMVYLLECLQKTPPPVLIFAEKKADVDAIHEYLLLKGVEAVAIHGGKDQEERTKAIEAFREGKKDVLVATDVASKGLDFPAIQHVINYDMPEEIENYVHRIGRTGCSGNTGIATTFINKACDESVLMDLKALLLEAKQKVPPVLQVLHCG	soluble
MGSDKIHHHHHHMGAKKNFVLDTNVILHDYKCIENFQENDIYLPIVVLEELDKFKKGSEQINYNAREFVRELDLLTSNDLFLKGASLGPGKGTLYIVTGDKYQEKIAHSFPDKTPDHRILSCALTIAEKNPKIKTTLVSKDVNLRMKARSLGIPVEDYITDKVVNVDIFERAQETYENIDPDLIDKIYSSPEGVDADSLDIKSKLDPNECFILKSVRNSVLARYNPFTDKIKKVDKGTNFGIQPRNAEQSFAFEVLNDPNIKLVGLTGKAGTGKTLLALASALKQAGTYKQILLARPIVALANKDLGFLPGDEKQKVAPYMQPLFDNLNVIKTQFAPGNPDVRKIDDMQKNNQLVIEALAFIRGRSLSETYCIIDEAQNLTPHEIKTIITRAGEGTKMVFTGDIQQIDSPYLDAQSNGLAYMIDKMKGQDLFAHINLIKGERSELSELASDLL	not soluble
METETDDSETSLNDSFGNKDGLELLEYERATLAKTLPASVLFVVANGLGLERLFLEHLILFSDRRLLALVLNTNEHDESYFVSKLKEHNVECDPKVINSEVSIKDRQSIYLEGGVQFCSSRVLLVDLLQNRIPTDRIAAIFVYRAHQTLNAFQDSFILRLYREKKPDGTVKAFTDFPNSLSSLGQLQRLVDRLYIRHVELMPRFSSIIESELNRYQLKTAIFSVDVPTPLRRVHRTIIEFIKVCVRDLRTCSTSGKQTDEQNEEMIHVPWAATRLEKRLHDRRGHISEKQQRLLNDVASLREILQLSENMDVATVLSRLQVLKNDRTVLEEHSGWLLSPSFNRIMEDLLTIAGVTNGKADYKKFATPAKWTVLSEILREIKMLPVEKKDRGNDSPSVLVITSSEDLSRQVTDVVRYGINKMKWMTWRQLGYKSTQEMPEDEPLWDPDTISQLMRSSVDGESKSEVIANVQKTQKTTARAAQKRRKHAEELSGFSSDHRVQTNLIQFGILQYKRRKSGNEASTSQETTEWEVKEEMEEIEEITKNIGDLEAELVVSTTRERERYTLLKLLETKKPRAIVLYTMSLQTLRQIEIYRSTNPNRSLHVYWLQYTESTEESRYLESINRETMSFELLIREQGTLLISREFNVDREDAPRLKISTRDGGGARRDGAVDPRDQMDPEEELERPKIIVDMREFNSELPTVLYTKGYNVVATTIEIGDYILSPNIAIERKALDDLTQSLQSGRVFKQIEQMLEHYDCTVLLIESNRKFETKIVNGGPFQGELSRHCREIRSIFCSLIWANPKMRCVWTISPTNSAEFFSELKLSAPEPDVDRAISLKADQVECSSQELTDSEASTSTKAKKGKKWKPNPTVIRTLTQIFGIKASEAHNLLANSSIKTLADLFSLNITASHLSDFIPSTSADFIKDLSTFNFGRK	not soluble
MGSDKIHHHHHHMHYRQYGRTGRLISRFSLGLMRCLDSAAQLEAVLDAAWRLGINHFETAQSYGPSEAYLAQALHSLQLPRDQVIITTKILPDRDPQQMVEAVLRSRDRLGIDSIDCLALHGLNQPEHLQQAIAALPALQTLQAEGVFQHLGFSSHGDRELILEAIATDAFDFVSLHYYLLFQRHAPVIEAAAAKNLGIFIISPVDKGGLLHQPSAQLIEDCQPFSPLALNYRFLLSDRRITTLSFGAAKAEELAVLQDFVDADQPLSLEEAEAIARLEQVRQQRLGRDYCQQCYACLPCPEAINIPEVLRLRNLAIAHDMQAYGRYRYRMFENAGHWFPGQRGSRCTDCGDCLPRCPHHLPIADLVRDADQRLAGAPRRRLWGD	not soluble
MTGNSFNSMKDFLKQTGGYAVIDGGLATEFERHGADLNDPLWSAKCLVTSPHLIHTVHLDYLEAGADIISSASYQATIQGFEAKGFSREESESLLKKSVEIATEARNSYYDKCGTSSSMDDKILKKRPILVAASVGSYGAYLADGSEYSGIYGDSITLEKLKDFHRRRLQVLAESGADLIAFETIPNKIEAQAFADLLEEGDVKIPGWFSFNSKDGVNVVSGDSIKECISIAENCEKVVAVGINCTPPRFIEGLVLEIEKVTSKPILVYPNSGESYDADRKEWVENTGVGDEDFVSYVEKWMDAGVSLLGGCCRTTPTTIRAIHKRLVNRRSL	soluble
MGSDKIHHHHHHMLQQRIQSLEEQEHLPSLLSADAQELAHQLQEHQKKIFSPSAQKTMRLFSPAEAAAFIGIGEGYLRQIASEGHGPQPLSNGRRMYAMEDIDRIRRVLDEGSKTGKYIPHRRPGEKLQVVSVMNFKGGSGKTTTSAHLAQYLALRGYRVLAIDLDPQASLSALFGHQPELDVGEGETLYGAIRYEAPRPIAEVVRSTYTANLHLIPGNLELMEFEHETPKAMIAGSTETMFFARIGEVLSEIESFYDIVVIDCPPQLGFLTMSALCAATSVLITVHPQMLDVMSMSQFLSMTSELMAVVENAGGRTSYDWMRYLVTRFEPNDGPQSQMTGFMRAIFGNRMLQNAMVKSTAISDAGVTKQTLYEVERSQFIRGTYDRAMDSLSLVNAEIEEMIRRVWGRK	not soluble
ANVKLLLPYILKWEGGFVHDPADAGGATNKGVTIATWKRVGYDKDGDGDIDVEDLKLLTDDDVLNRVLKPFYWDRWKADLIESQKVANILVDWVWGSGKYGIVIPQRILGVQADGIVGNKTLQAVNSADPDELFESIFDARREFLEDITARSIKKYEDSIGRKATERELLRHTNKRFLRGWLNRLEDI	not soluble
SNAMANTSSDWAGAPQNASADGEFVRDTNYIDDRIVADVPAGSEPIAQEDGTFHWPVEAGRYRLVAARACPWAHRTVITRRLLGLENVISLGLTGPTHDVRSWTFDLDPNHLDPVLQIPRLQDAYFNRFPDYPRGITVPALVEESSKKVVTNDYPSITIDFNLEWKQFHREGAPNLYPAELREEMAPVMKRIFTEVNNGVYRTGFAGSQEAHNEAYKRLWVALDWLEDRLSTRRYLMGDHITEADIRLYPTLVRFDAVYHGHFKCGRNKITEMPNLWGYLRDLFQTPGFGDTTDFTEIKQHYYITHAEINPTRIVPVGPDLSGFATPHGREKLGGSPFAEGVTLPGPIPAGEEVKNPEPFQK	soluble
MAHHHHHHMGSTDGECASSLRGHRMPSWILSHLETESKCLNDTPLVEEEKAPPSVPVTVLKKRFPQGLKILKKAPPKEKIVMPVEEECADSCRSSRPSVSVQSAVPGNGHRIARHTIRFRMSDWANLIEEKKDLVAQAVKEDISEGCGLDIGRILQLELKLTDILVVTFIVDHSHDDGGERPFHARLKVCKFPRTSSLYLLR	soluble
MRGVVGVLALQGDFREHKEALKRLGIEAKEVRKKEHLEGLKALIVPGGESTTIGKLAREYGIEDEVRKRVEEGSLALFGTCAGAIWLAKEIVGYPEQPRLGVLEAWVERNAFGRQVESFEEDLEVEGLGSFHGVFIRAPVFRRLGEGVEVLARLGDLPVLVRQGKVLASSFHPELTEDPRLHRYFLELAGV	soluble
MSLAYQSEYALENEMMNQLEQLGYERVTIRDNKQLLDNFRTILNERHADKLEGNPLTDKEFQRLLTMIDGKSIFESARILRDKLPLRRDDESEIYLSFLDTKSWCKNKFQVTNQVSVEDTYKARYDVTILINGLPLVQVELKRRGIDINEAFNQVKRYRKQNYTGLFRYIQMFIISNGVETRYFSNNDSELLKSHMFYWSDEGHHHHHH	not soluble
MTSLQRKGPQTRILSTGEEEKLKRDQALVSAFKQQKLEKEAQKNWDLFYKRNSTNFFKDRHWTTREFEELRSCREYEGQKLTLLEAGCGVGNCLFPLLEEDSNIFAYACDFSPRAVDYVKQHPLYNAERCKVFQCDLTRDDLLDHIPPESVDAVTLIFVLSAVHPEKMHLVLLNVYKVLKPGRSVLFRDYGLNDHAMLRFKAGSKLGENFYVRQDGTRSYFFTDEFLAKLFVDAGYEEVVNEYVFRETVNKKEGLCVPRVFLQSKFRKPPKDPAPTTDSASLLRKEF	not soluble
MKPTFLEFRHLKTLLALKETGSVSLAAKRVYLTQSALSHQIKLIEEQFGLPLFERKSNPLRFTSAGERLIRLANEVMPKVIDAERDLARVKHGDAGQLRIAVECHTCFDWLMPAMDEFRQHWGLVELDIVSGFHTDPVGLLLSHRADWAIVSEIEHNDDVIFKPLFSYEMVGICSKNHSLAEKDIWEAEDFIDETWVTYPVPDDMLDLWRKVLKSKGINPTRRTTELTIAMIQLVASRRGIATIPYWAALPYLEKGYVVARKVTKEGLYSNLYAAIRKEDESLSYLEDFYQTVKSQSFSTLPGLSVLNL	not soluble
MRLWVLTLVQAHFAILAVADTTVAVEETTKAANETTTPDGPHADCFLCAPTVQCGETVEGDYSSGEVNVLLMKPMEDNDYFIVKGEVFPNAMKIFIDIYKDLSVGKAQEGGNNQPRLLTFEHYFDTNLTFSRSNLHGEGVPDSFREATLPDAIKQKKPWTLMFKMKDGLSAFETGDETGWFNNDIPWNGTATTQSFNIRGGWKTTSIQ	not soluble
